In test [1] the target is T1, IDUA 218 signature peptide (IDUA 218-230).
T1 construct: Endogenous tryptic peptide from digested DBS, PBMC or buccal swab samples; An internal standard version of the same peptide (1.25 fmol) was captured alongside it; also called first IDUA signature peptide
T1 peptide: LGGPGDSFHTPPR
Description: immuno-SRM, mAb on Protein G magnetic beads, peptide capture from PBMC digest.

Test [2] has as its target T2, IDUA 462 signature peptide (IDUA 462-474).
T2 construct: Endogenous tryptic peptide from digested DBS, PBMC or buccal swab samples; An internal standard version of the same peptide (1.25 fmol) was captured alongside it; also called second IDUA signature peptide
T2 peptide: GVPPGPGLVYVTR
The test is described as above.

B1: anti-IDUA 218 monoclonal antibody (antibody, V domains shown)
VH: QVQLQQPGTELVKPGASVKLSCKASGYTFTRYWMHWVKQRPGQGLEWIGEINPSNGGTNYNEKFKNKATLNVDKSSSTAYMQLSSLTSEDSAVYYCTLAMDYWGQGTSVTVSS
VL: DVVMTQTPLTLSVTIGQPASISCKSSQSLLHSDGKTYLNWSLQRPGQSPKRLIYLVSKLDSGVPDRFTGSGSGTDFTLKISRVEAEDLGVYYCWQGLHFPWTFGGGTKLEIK
notes: Used as a monoclonal antibody coated on Protein G magnetic beads (1 ug per assay)
For B1, the binding result in test [1] was “binds”.

B2: anti-IDUA 462 monoclonal antibody (antibody, V domains shown)
VH: EVQLQQSGAELVKPGASVKLSCTASGFNIKDTYMHWVNQRPEQGLEWIGRIDPANGNTKYGPKFQGKATITADTSSNTAYLQLSSLTSEDTAVYYCAQTARAPFAYWGQGTLVTVSA
VL: DIVITQDEVSNPVTSGESVSISCRSSKSLLYKDGKTYLNWFLQRPGQSPQLLVYWMSTRASGVSDRFSGSGSGTDFTLKISRVKAEDVGMYYCQQVVEYPFTFGTGTKLEIK
notes: Used as a monoclonal antibody coated on Protein G magnetic beads (4 ug per assay)
B2: the binding result in test [2] is “binds”.

(Values after patent US20210302435A1 (SEATTLE CHILDREN S HOSPITAL D B A SEATTLE CHILDREN S …, published 2021).)
